In patent US20240294650A1 (Alector, published 2024):

T1: Recombinant human MerTK-human Fc Chimera protein (human, UniProt Q12866 26-499, limits assumed)
T1 construct: bought construct; also called MerTK-Fc (R&D systems, Cat #391-MR-100)
T1 sequence: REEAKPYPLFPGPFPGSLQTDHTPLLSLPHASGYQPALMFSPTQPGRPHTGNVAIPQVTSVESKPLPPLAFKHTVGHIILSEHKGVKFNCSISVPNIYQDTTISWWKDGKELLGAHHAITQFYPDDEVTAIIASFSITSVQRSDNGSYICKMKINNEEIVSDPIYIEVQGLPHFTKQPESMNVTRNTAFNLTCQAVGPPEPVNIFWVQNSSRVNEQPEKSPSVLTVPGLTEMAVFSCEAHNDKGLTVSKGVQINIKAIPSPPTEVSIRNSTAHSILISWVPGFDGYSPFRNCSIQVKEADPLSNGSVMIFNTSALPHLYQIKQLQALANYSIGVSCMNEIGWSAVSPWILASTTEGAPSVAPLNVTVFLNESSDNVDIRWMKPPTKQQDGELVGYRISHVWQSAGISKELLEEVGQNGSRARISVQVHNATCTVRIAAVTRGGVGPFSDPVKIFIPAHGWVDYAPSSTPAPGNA

T2: Full Axl (ECD domain of human Axl) (human, UniProt P30530 26-451)
T2 construct: also called human Axl ECD
T2 sequence: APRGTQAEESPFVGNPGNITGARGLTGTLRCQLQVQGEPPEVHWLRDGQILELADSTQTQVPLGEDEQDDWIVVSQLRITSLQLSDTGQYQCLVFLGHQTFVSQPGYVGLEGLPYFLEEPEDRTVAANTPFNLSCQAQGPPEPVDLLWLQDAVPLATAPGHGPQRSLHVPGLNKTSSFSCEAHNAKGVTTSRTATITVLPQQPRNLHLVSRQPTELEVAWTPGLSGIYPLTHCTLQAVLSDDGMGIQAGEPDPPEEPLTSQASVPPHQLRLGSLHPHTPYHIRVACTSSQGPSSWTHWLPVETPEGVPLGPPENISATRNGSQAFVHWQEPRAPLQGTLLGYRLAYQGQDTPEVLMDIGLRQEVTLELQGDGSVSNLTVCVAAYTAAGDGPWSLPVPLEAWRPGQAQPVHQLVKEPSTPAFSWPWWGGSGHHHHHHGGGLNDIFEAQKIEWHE


How the values were obtained:
[1] = target: T1, Recombinant human MerTK-human Fc …; assay: blocking ELISA, ProS-His on MerTK-Fc, Ab 66.6 nM, isotype=100%
Description: Briefly, rabbit anti-human IgG antibody (Jackson ImmunoResearch, Cat #309-005-008) was coated at 2 μg/ml onto high-protein binding plates at 4° C. overnight. After washing with 0.05% Tween20 in PBS three times, 5% BSA in PBS was added for 1 hour. Recombinant human MerTK-human Fe Chimera protein (R&D systems, Cat #391-MR-100) was added at 2 μg/ml for 1 hour and plates were washed before the addition of 40 μl of anti-MerTK hybridoma supernatants and 40 μl of His tag-conjugated recombinant Gas6 (R&D systems, Cat #885-GSB-050) at 3 μg/ml or His tag-conjugated recombinant ProS (R&D systems, Cat #9489-PS-100) at 20 μg/ml. After a further incubation for 1 hour, plates were washed and incubated for 1 hour with HRP-conjugated anti-6×His tagged antibody (Abcam, Cambridge, MA, Cat #ab1187). Plates were then washed and an HRP substrate, TMB, was added to develop the plates. The reaction was stopped by adding 50 μl 2N H₂SO₄ and the OD was measured using a spectrophotometer (BioTek).
Anti-MerTK antibodies were titrated to a final concentration from 66.6 nM to 4 pM and tested against anti-human MerTK antibody M6 (disclosed in WO2016/106221) or isotype control antibody.

[2] = target: T2, Full Axl (ECD domain of human Axl); assay: SPR (data not shown)
Description: Binding of anti-MerTK antibodies of the present disclosure to these domain-swapped chimera or deletion mutants was tested by Surface Plasmon Resonance (SPR) using Carterra LSA. Purified anti-MerTK antibodies were immobilized in duplicate on a HC30M chip (Carterra) by amine coupling, following the manufacturer's instructions (described previously).
Supernatants containing the constructs were diluted 1:1 with running buffer containing 0.5 mg/mL BSA (HBS-TE, Carterra; BSA, Sigma) and injected over the immobilized antibodies. The surface was regenerated with 10 mM Glycine pH2.0 after each construct injection. Sensorgrams were analyzed using Carterra Epitope software to identify patterns of construct binding. Loss of binding to MerTK constructs with domains deleted or swapped in from Axl and/or gain of binding to Axl constructs with MerTK domains swapped in were evaluated. Data from these studies were used to construct a domain binding map for anti-MerTK antibodies and their binding to various domains of human MerTK.

Binder	Percent ProS ligand binding [1] [%]	binding result [2]
MTK-228 (antibody, human IgG1, V domains shown) VH: QDQLQQSGPELVKPGASVKISCKASGYSFTSYYIHWVKQRPGQGLEWVGWIFPGNGNTKYNERFKGKATLTADTSSSTAYMQLSSLTSEDSAVYYCARLGLIYALDYWGQGTSVTVSS VL: DAVMTQTPLSLPVSLGDQASISCRSSQSLENSNGNTYLHWYLQKPGQSPQLLIYRVSNRFSGVLDRFSGSGSGTDFTLKISRVEAEDLGVYFCLQVTHVPFTFGSGTKLEIK	216	no binding
MTK-211 (antibody, human IgG1, V domains shown) VH: QVQLQQSGAELMKPGASVKLSCKATGYTFTGYWIEWVKQRPGHGLEWIGEILPGSGGSNYNEKFKGKATFTADTSSNTAYIQLSSLTTEDSAIYCCARGEPSYFSDAGFAYWGQGTLVTVSA VL: QIVLTQSPAVMSASPGEKVTMTCSASSSITYMHWYQQKPGTSPKRWIYDTSKLASGVPARFSGSGSGTSYFLTISSMEAEDVATYYCHQRSTYPYTFGGGTKLEIM	106	–
MTK-207 (antibody, human IgG1, V domains shown) VH: QVQLKESGPGLVAPSQSLSITCTVSGISLTSYGVSWVRQPPGKGLEWLGIIWGDGSTNYHSALISRLSISKDNSKSQVFLKLNSLQTDDTATYYCAKGRYGNYEDWYFDVWGTGTTVTVSS VL: DIQMTQSPASLSASVGETVTITCRASGNIHNYLAWYQQKQGKSPQLLVYNAKTLAAGVPSRFSGSGSGTQYSLKINSLQPEDFGSYYCQHFWSIPLTFGAGTKLELK	95.5	–
MTK-215 (antibody, human IgG1, V domains shown) VH: EVQLVESGGGLVKPGGSLKLSCAASGFIFSDYGMHWVRQAPEKGLEWVAYISSGSSTIYYGDTVKGRFTISRDNAKNTLFLQMTSLRSEDTAMYYCAKGGRYGAMDYWGHGTSVTVSS VL: DIVLTQSPATLSVTPGDSVSLSCRASQSISNNLHWYQQKSHESPRLLIKNPSQSISGIPSRFGARGSGTDFTLIINSVETEDLGVYFCQQSNSWPFTFGSGTKLEIK	81.6	–
MTK-208 (antibody, human IgG1, V domains shown) VH: QVQLQQPGAELVVPGASVRLSCKASGYTFINYWMHWVKQRPGQGLEWIGEIDPSDSYANYNQKFKDKSTLSLDKSSSTAYMQLSSLTSEDSAVYYCARCDYYGRLDYWGQGTTLTVSS VL: QVVLTQSPAIMSASPGEKVTITCSASSSVSYMLWFQQKPGTSPKLWIYSTSNLASGVPARFSGSGSGTSYSLTISRLEAEDAATYYCQQRSSYPPITFGAGTKLELK	71.7	–
MTK-216 (antibody, human IgG1, V domains shown) VH: EVQLVESGGGLVKPGGSLKLSCAASGFTFSDYGMHWVRQAPEKGLEWVAFISSGSTTIYYADTVKGRFTISRDNAKNTLILQMTSLRSEDTAIYYCTRGGFHLDYWGQGTTLTVSS VL: SIMMTQSPSSLAVSAGEKVTMGCKSSQSVLYSANQQNYLAWYQQKPGQSLKLLIYWASTRESGVPDRFTGSGSGTDFTLTISSVQAEDLAVYYCHQYFSSWTFGGGTKLEIK	72.8	–
MTK-201 (antibody, human IgG1, V domains shown) VH: QVQLRQSGPGLVQPSQSLSITCTVSGFSLSNYGLHWVRQSPGKGLEWLGVIWSGGITDYNAAFISRLSIIKDNSRSQVFFKMNSLQADDTAIYYCARKGHDPYAMDFWGQGTSVTVSS VL: QIVLTQSPPIMSAFLGERVTMTCTASSSVSSSYLHWYRQMPGSSPKLWIYDTSNLASGVPARFSGSGSGTSYSLTISSMEAEDAATYYCHQYHHSPYTFGGGTKLEIK	94.3	–

More lines, now with the values ahead:

Percent ProS ligand binding [1] [%]	binding result [2]	Binder
179	no binding	MTK-218 (antibody, human IgG1, V domains shown) VH: QVQLQQSGPELVKPGTSVKISCKASGYSFTSYYIHWVKQRPGQGLDWIGWIFPGNRNTQYNEKFKGKATLTADTSSSTAYMQLSSLTSEDSAVYYCARLGLIYALDYWGQGTSVTVSS VL: DAVMTQTPLSLPVSLGDQASISCRSSQSLENSNGHTYLHWYLQKPGQSPQLLIYRVSNRFSGVQDRFSGSGSGTDFTLKISRVEAEDLGVYFCLQVTHVPFTFGSGTKLEIK
–	no binding	MTK-230 (antibody, human IgG1, V domains shown) VH: EVQLQQSGPELVKPGASVRIPCKASGYTFSDYNMDWVKQSHGKSLEWIGNINPNIGGTIYSQKFKGKATLTVDKSSSTAYMELRSLTSEDTAVYYCARGDYGFASWGQGTLVTVSA VL: DIVLTQSPASLTVSLGQRATISCRASRSVSTSGYSYMHWYQQKPGQPPKLLIYLASNLESGVPARFSGSRSGTDFTLNIHPVEEEDAATYYCQHSREYPFTFGSGTKLEIK
84.5	no binding	MTK-227 (antibody, human IgG1, V domains shown) VH: EVKLVESGGGLVQPGGSLSLSCAASGFTFTDNYMTWVRQPPGKALEWLGFSRNKANGYTTEYSASVKGRFTISRDSSQSILYLQMNALRAEDSGTYYCARFPPHYYAGGYFDVWGTGTTVTVSS VL: DIQMTQSPASLSASVGETVTITCRASENIYSYLAWYQQKQGKSPQLLVYNAKTLAEGVPSRFSGSGSGTQFSLKINSLQPADFGSYYCQHYYRTPPTFGGGTKLEIK
–	no binding	MTK-203 (antibody, human IgG1, V domains shown) VH: QVQLQQPGAELVKPGASVKVSCKASGYTFTNYWMHWVKQRPGQGLEWIGRIHPFDTETNDNQKFKGKATLTVDKSSSTAYMQLSSLTSEDSAVYYCVIPANGGFAYWGQGTLVTVSA VL: ETTVTQSPASLSVATGEKVTIRCITSTDIGDDMNWYQQKPGEPPKVLISEGNSLRPGVPSRFSSSGYGTDFVFTIENTLSEDVADYFCLQSDNLPLTFGSGTKLEIK
–	no binding	MTK-214 (antibody, human IgG1, V domains shown) VH: QVQLQQPGAELVKPGASVKVSCKASGYTFTNYWMHWMKQRPGQGLEWIGRIHPFDSDTNYNEKFTDKATLTVDKSSSTAYMQLSSLTSEDSAVYYCAIGTLIYWGQGTTLTASS VL: DILLTQSPATLSVTPGETVSLSCRASQSIYKKLHWFQQRSHRSPRLLIKFASDSISGIPSRFTGSGSGTDYTLSINSVKPEDEAIYYCLQGYSTPLTFGAGTKLELK
–	no binding	MTK-224 (antibody, human IgG1, V domains shown) VH: QVQLQQPGAELVKPGASVKVSCKASGYTFTSYWMHWVKQRPGQGLEWIGRIHPFDSDTNYNQKFKGKATLTVDKSSSTAYMQLSSLTSEDSAVYYCSIAGFAYWGQGTLVTVSA VL: DIVMTQSPATLSVTPGDRVSLSCRASQIISDYLNWYQQKSHESPRLLIKYASQSISGIPSRFSGSGSGSDFTLSINSVEPEDVGVYYCQNGHSFPLTFGAGTKLELK
–	no binding	MTK-209 (antibody, human IgG1, V domains shown) VH: QVQLQQPGAELVKPGASVKVSCKASGYTFTNYWIHWVKQRPGQGLEWIGRIHPFDSEPNYNQKFKGKATLTVDKSSSTAYMHLTSLTSEDSAVYYCALASFAYWGQGTLVTVSA VL: ETTVTQSPASLSMAMGEKATIRCITSTDIDDKMNWYQQKPGKPPKLLISAGNTLRPGVPSRFSSSGYGTDFVLTVENMLSEDVADYYCLQGGALPLTFGSGTKLEIK
